These results are taken from patent publication US20250388669A1 (published 2025).

For one assay, the target named is T1, B7H3 (human, UniProt Q5ZPR3 29-466, limits assumed).
T1 construct: Tumor associated antigen; also called huB7H3
T1 sequence (looked up): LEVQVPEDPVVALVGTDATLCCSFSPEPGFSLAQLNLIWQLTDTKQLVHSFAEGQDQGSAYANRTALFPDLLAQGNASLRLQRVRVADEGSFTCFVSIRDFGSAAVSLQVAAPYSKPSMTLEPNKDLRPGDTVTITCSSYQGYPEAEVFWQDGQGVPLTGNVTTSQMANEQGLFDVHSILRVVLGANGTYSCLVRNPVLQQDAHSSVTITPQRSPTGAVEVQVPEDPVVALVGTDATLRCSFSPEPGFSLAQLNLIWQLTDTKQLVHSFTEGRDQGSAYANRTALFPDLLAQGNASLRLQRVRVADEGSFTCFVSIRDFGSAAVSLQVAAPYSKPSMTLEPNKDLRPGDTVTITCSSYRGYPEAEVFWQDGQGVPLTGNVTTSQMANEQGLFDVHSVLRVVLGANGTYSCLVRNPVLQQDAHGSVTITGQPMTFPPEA
The assay is described as follows: FCM or ELISA. Background: An ELISA detects its analyte on a solid surface through an enzyme-linked reagent.

The next assay deals with CD3 (human). As to the kind of experiment: CD3 binding, as described in Example 2 (ELISA or FCM).
CD3 (human), sequence (chain, as listed by the source): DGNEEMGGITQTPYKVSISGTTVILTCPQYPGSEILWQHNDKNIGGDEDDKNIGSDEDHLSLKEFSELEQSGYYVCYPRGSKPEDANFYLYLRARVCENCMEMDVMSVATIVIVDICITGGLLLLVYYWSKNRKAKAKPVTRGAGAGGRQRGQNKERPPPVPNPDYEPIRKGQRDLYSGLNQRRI

B1: Ly2279 (bispecific antibody)
chain 1: not shown
chain 2: QVQLVQSGAEVKKPGASVKVSCKASGYTFTSYVMHWVRQKPGQGLEWIGYINPYNEGTESTDKFKGRATMTSDKSTSTVYMELSSLRSEDTAVYYCASIYYGYEGTYFGVWGQGTLVTVSSASTKGPSVFPLAPSSKSTSGGTAALGCLVKDYFPEPVTVSWNSGALTSGVHTFPAVLQSSGLYSLSSVVTVPSSSLGTQTYICNVNHKPSNTKVDKKVEPKSCGGGGSGGGGSGGGGSGGGGSDIQMTQSPSSVSASVGDRVTITCRASQGIYSWLAWYQQKPGKAPNLLIYTASTLQSGVPSRFSGSGSGTDFTLTISSLQPEDFATYYCQQANIFPLTFGGGTKVEIKGGGGSDKTHTCPPCPAPEAAGPSVFLFPPKPKDTLMISRTPEVTCVVVDVSHEDPEVKFNWYVDGVEVHNAKTKPREEQYNSTYRVVSVLTVLHQDWLNGKEYKCKVSNKALPAPIEKTISKAKGQPREPQVYTLPPSREEMTKNQVSLSCAVKGFYPSDIAVEWESNGQPENNYKTTPPVLDSDGSFFLVSKLTVDKSRWQQGNVFSCSVMHEALHNRFTQKSLSLSPG
light: EIVLTQSPATLSLSPGERATLSCRASSSVSYMHWYQQKPGQAPRPWIYATSNLASGIPARFSGSRSGTDYTLTISSLEPEDFAVYYCQQWSSNTLTFGGGTKVEIKRTVAAPSVFIFPPSDEQLKSGTASVVCLLNNFYPREAKVQWKVDNALQSGNSQESVTEQDSKDSTYSLSSTLTLSKADYEKHKVYACEVTHQGLSSPVTKSFNRGEC
notes: B7H3/CD40: two B7H3 Fabs, central CD40 Fv (TM383)
With B1, in the assay with B7H3, the binding result is “binds”.

B2: Ly2434 (bispecific antibody, human IgG1, kappa)
chain 1: QVQLVQSGAEVKKPGASVKVSCKASGYTFTSYVMHWVRQKPGQGLEWIGYINPYNEGTESTDKFKGRATMTSDKSTSTVYMELSSLRSEDTAVYYCASIYYGYEGTYFGVWGQGTLVTVSSASTKGPSVFPLAPSSKSTSGGTAALGCLVKDYFPEPVTVSWNSGALTSGVHTFPAVLQSSGLYSLSSVVTVPSSSLGTQTYICNVNHKPSNTKVDKKVEPKSCDKTHTCPPCPAPEAAGPSVFLFPPKPKDTLMISRTPEVTCVVVDVSHEDPEVKFNWYVDGVEVHNAKTKPREEQYNSTYRVVSVLTVLHQDWLNGKEYKCKVSNKALPAPIEKTISKAKGQPREPQVYTLPPSREEMTKNQVSLWCLVKGFYPSDIAVEWESNGQPENNYKTTPPVLDSDGSFFLYSKLTVDKSRWQQGNVFSCSVMHEALHNHYTQKSLSLSPGGGGGSGGGGSGGGGSGGGGSEVQLVESGGGLVQPGGSLRLSCAASGFTFTNYGLHWVRQAPGKGLEWVSSISPSGGVTYYRDSVKGRFTISRDNSKNTLYLQMNSLRAEDTAVYYCAKPFLGWGGANWIAHWGQGTLVTVSS
chain 2: QVQLVQSGAEVKKPGASVKVSCKASGYTFTSYVMHWVRQKPGQGLEWIGYINPYNEGTESTDKFKGRATMTSDKSTSTVYMELSSLRSEDTAVYYCASIYYGYEGTYFGVWGQGTLVTVSSASTKGPSVFPLAPSSKSTSGGTAALGCLVKDYFPEPVTVSWNSGALTSGVHTFPAVLQSSGLYSLSSVVTVPSSSLGTQTYICNVNHKPSNTKVDKKVEPKSCDKTHTCPPCPAPEAAGPSVFLFPPKPKDTLMISRTPEVTCVVVDVSHEDPEVKFNWYVDGVEVHNAKTKPREEQYNSTYRVVSVLTVLHQDWLNGKEYKCKVSNKALPAPIEKTISKAKGQPREPQVYTLPPSREEMTKNQVSLSCAVKGFYPSDIAVEWESNGQPENNYKTTPPVLDSDGSFFLVSKLTVDKSRWQQGNVFSCSVMHEALHNRFTQKSLSLSPGGGGGSGGGGSGGGGSGGGGSDIQMTQSPSSLSASVGDRVTITCLASEDISNDLAWYQQKPGKAPKLLIYFVDRLLDGVPSRFSGSGSGTDFTLTISSLQPEDFATYYCQQSYKYPPTFGQGTKLEIK
light: EIVLTQSPATLSLSPGERATLSCRASSSVSYMHWYQQKPGQAPRPWIYATSNLASGIPARFSGSRSGTDYTLTISSLEPEDFAVYYCQQWSSNTLTFGGGTKVEIKRTVAAPSVFIFPPSDEQLKSGTASVVCLLNNFYPREAKVQWKVDNALQSGNSQESVTEQDSKDSTYSLSSTLTLSKADYEKHKVYACEVTHQGLSSPVTKSFNRGEC
notes: B7H3/CD40: two B7H3 Fabs, terminal CD40 Fv (TM559)
With B2, the binding result with B7H3 was “binds”.

B3: Ly2428 (bispecific antibody)
chain 1: QVQLVQSGAEVKKPGASVKVSCKASGYTFTSYVMHWVRQKPGQGLEWIGYINPYNEGTESTDKFKGRATMTSDKSTSTVYMELSSLRSEDTAVYYCASIYYGYEGTYFGVWGQGTLVTVSSASTKGPSVFPLAPSSKSTSGGTAALGCLVKDYFPEPVTVSWNSGALTSGVHTFPAVLQSSGLYSLSSVVTVPSSSLGTQTYICNVNHKPSNTKVDKKVEPKSCGGGGSGGGGSGGGGSGGGGSEVQLVESGGGLVQPGGSLRLSCAASGFTFTNYGLHWVRQAPGKGLEWVSSISPSGGVTYYRDSVKGRFTISRDNSKNTLYLQMNSLRAEDTAVYYCAKPFLGWGGANWIAHWGQGTLVTVSSGGGGSDKTHTCPPCPAPEAAGPSVFLFPPKPKDTLMISRTPEVTCVVVDVSHEDPEVKFNWYVDGVEVHNAKTKPREEQYNSTYRVVSVLTVLHQDWLNGKEYKCKVSNKALPAPIEKTISKAKGQPREPQVYTLPPSREEMTKNQVSLWCLVKGFYPSDIAVEWESNGQPENNYKTTPPVLDSDGSFFLYSKLTVDKSRWQQGNVFSCSVMHEALHNHYTQKSLSLSPG
chain 2: QVQLVQSGAEVKKPGASVKVSCKASGYTFTSYVMHWVRQKPGQGLEWIGYINPYNEGTESTDKFKGRATMTSDKSTSTVYMELSSLRSEDTAVYYCASIYYGYEGTYFGVWGQGTLVTVSSASTKGPSVFPLAPSSKSTSGGTAALGCLVKDYFPEPVTVSWNSGALTSGVHTFPAVLQSSGLYSLSSVVTVPSSSLGTQTYICNVNHKPSNTKVDKKVEPKSCGGGGSGGGGSGGGGSGGGGSDIQMTQSPSSLSASVGDRVTITCLASEDISNDLAWYQQKPGKAPKLLIYFVDRLLDGVPSRFSGSGSGTDFTLTISSLQPEDFATYYCQQSYKYPPTFGQGTKLEIKGGGGSDKTHTCPPCPAPEAAGPSVFLFPPKPKDTLMISRTPEVTCVVVDVSHEDPEVKFNWYVDGVEVHNAKTKPREEQYNSTYRVVSVLTVLHQDWLNGKEYKCKVSNKALPAPIEKTISKAKGQPREPQVYTLPPSREEMTKNQVSLSCAVKGFYPSDIAVEWESNGQPENNYKTTPPVLDSDGSFFLVSKLTVDKSRWQQGNVFSCSVMHEALHNRFTQKSLSLSPG
light: EIVLTQSPATLSLSPGERATLSCRASSSVSYMHWYQQKPGQAPRPWIYATSNLASGIPARFSGSRSGTDYTLTISSLEPEDFAVYYCQQWSSNTLTFGGGTKVEIKRTVAAPSVFIFPPSDEQLKSGTASVVCLLNNFYPREAKVQWKVDNALQSGNSQESVTEQDSKDSTYSLSSTLTLSKADYEKHKVYACEVTHQGLSSPVTKSFNRGEC
notes: B7H3/CD40: two B7H3 Fabs, central CD40 Fv (TM559)
In the case of B3, the binding result in the assay with B7H3 is given as “binds”.

B4: Ly2424 (bispecific antibody, human IgG1, kappa)
chain 1: not shown
chain 2: QVQLVQSGAEVKKPGASVKVSCKASGYTFTSYVMHWVRQKPGQGLEWIGYINPYNEGTESTDKFKGRATMTSDKSTSTVYMELSSLRSEDTAVYYCASIYYGYEGTYFGVWGQGTLVTVSSASTKGPSVFPLAPSSKSTSGGTAALGCLVKDYFPEPVTVSWNSGALTSGVHTFPAVLQSSGLYSLSSVVTVPSSSLGTQTYICNVNHKPSNTKVDKKVEPKSCDKTHTCPPCPAPEAAGPSVFLFPPKPKDTLMISRTPEVTCVVVDVSHEDPEVKFNWYVDGVEVHNAKTKPREEQYNSTYRVVSVLTVLHQDWLNGKEYKCKVSNKALPAPIEKTISKAKGQPREPQVYTLPPSREEMTKNQVSLSCAVKGFYPSDIAVEWESNGQPENNYKTTPPVLDSDGSFFLVSKLTVDKSRWQQGNVFSCSVMHEALHNRFTQKSLSLSPGGGGGSGGGGSGGGGSGGGGSDIQMTQSPSSVSASVGDRVTITCRASQGIYSWLAWYQQKPGKAPNLLIYTASTLQSGVPSRFSGSGSGTDFTLTISSLQPEDFATYYCQQANIFPLTFGGGTKVEIK
light: EIVLTQSPATLSLSPGERATLSCRASSSVSYMHWYQQKPGQAPRPWIYATSNLASGIPARFSGSRSGTDYTLTISSLEPEDFAVYYCQQWSSNTLTFGGGTKVEIKRTVAAPSVFIFPPSDEQLKSGTASVVCLLNNFYPREAKVQWKVDNALQSGNSQESVTEQDSKDSTYSLSSTLTLSKADYEKHKVYACEVTHQGLSSPVTKSFNRGEC
notes: B7H3/CD40: two B7H3 Fabs, terminal CD40 Fv (TM383)
With B4, the binding result in the assay with B7H3 is “binds”.

B5: Ly305 (antibody, V domains shown)
VH: EVQLVESGGGLVQPGGSLRLSCAASGFTFSTYAMNWVRQAPGKGLEWVGRIRSKYNNYATYYADSVKGRFTISRDDSKNSLYLQMNSLKTEDTAVYYCVRHGNFGNSYVSWFAYWGQGTLVTVSS
VL: QAVVTQEPSLTVSPGGTVTLTCRSSTGAVTTSNYANWVQQKPGQAPRGLIGGTNKRAPWTPARFSGSLLGGKAALTITGAQAEDEADYYCALWYSNLWVFGGGTKLTVL
notes: Parent mAb; also called Anti-CD3 Ly305; parent anti-CD3 mAb
Usually EC50 stands for the midpoint of the concentration-response curve. B5: the EC50 with CD3 was 0.03 µg/mL.
